In US20250263440A1, “CD38-BINDING AGENTS AND USES THEREOF” (PeptiDream Inc., priority 2019, published 2025):
Positions of bridges follow the written chain, without caps; N, C: chain ends. Non-standard residues stand in square brackets, D forms with d. Residues, ends and D or L forms follow the SMILES beside them. No end group written: not given here. PEG12 = NCCOCCOCCOCCOCCOCCOCCOCCOCCOCCOCCOCCOCCC(=O)O; Bip = N[C@@H](Cc1ccc(-c2ccccc2)cc1)C(=O)O; NMeF = CN[C@@H](Cc1ccccc1)C(=O)O; Ahp(2) = CCCCC[C@H](N)C(=O)O; PEG4 = NCCOCCOCCOCCOCCC(=O)O

B1: Peptide of SEQ ID NO.27 (peptide)
peptide: {CH2CO}-AR[Ahp(2)]YHDEVL[Bip][Ahp(2)]AC
modifications: thioether N-13

Legend:
CD38 [1] = target: T1, CD38 (Homo sapiens, UniProt P28907); experiment: ELISA binding assay of I-1 / I-2 sequence variants to CD38
T1 construct: purchased R&D Systems
Protocol: Recombinant human CD38 proteins were purchased from R&D Systems. In some embodiments, the following codons were used. ClAc-Ala: N-Chloroacetyl-L-alanine; MePhe: N-Methyl-L-phenylalanine; MeGly: N-Methyl-glycine; Ahp: (S)-2-aminoheptanoic acid; Bph: (S)-3-([1,1′-biphenyl]-4-yl)-2-aminopropanoic acid.
A number of compounds having similar structures to compound I-1 (difference being amino acid sequence) were prepared and assessed in an ELISA assay. The first sequence is of I-1, and SEQ ID.NO.1.
A number of compounds having similar structures to compound I-2 (difference being amino acid sequence) were prepared and assessed in an ELISA assay. The first sequence is of I-2, and SEQ ID NO. 2.

CD38 [2] = target: T1, CD38; experiment: SPR assay (BIACORE T200, Sensor Chip CM3, single-cycle kinetics) of binding to immobilized CD38; conditions: pegylated compounds; SPR as in Example 2
Protocol: One of many useful technology for assessing CD38 binding is surface plasmon resonance (SPR). For example, the binding constant of I-1 (SEQ ID NO. 1; same as below) and I-2 (SEQ ID NO. 2; same as below) to CD38 was analyzed by a SPR assay using BIACORE T200 (cytiva: Former GE Healthcare). After the equilibration of Series S Sensor Chip CM3 (produced by cytiva: Former GE Healthcare) with Running Buffer (HBS-EP with 1% (v/v) DMSO), an EDC/NHS mixture was injected at a flow rate of […] for 4 minutes to thereby activate the functional groups on sensor chip. CD38 in 10 mM Acetate (pH5.5) was injected immobilized to at a flow rate of 5 L/min. For 4 minutes to immobilize the CD38 on the substrate surfaces of the sensor chip. Then Ethanolamine was injected at a flow rate of […] for 4 minutes. 1.0 M Ethanolamine (aq.) was injected at a flow rate of […] for 420 seconds for capping. 10 mM Peptides in DMSO were diluted to obtain 10 uM with Running Buffer, and prepared 100 nM, 50 nM, 25 nM, 10 nM, 5 nM of each peptide solutions (Peptide Samples).
(§1) Using these Peptide Samples, kinetics of peptides against CD38 was measured. The method adopted for sample measurement was a single-cycle kinetics method. The analysis was conducted using the evaluation software provided with Biacore T200. A DMSO correction curve obtained by solvent correction measurements was applied for the analysis. Kinetics fitting was done on the difference data obtained by subtracting the baseline data from sample measurement data.
KD values were calculated based on the association rate constant (ka) and dissociation rate constant (kd).
The binding constant of pegylated compounds was analyzed by a surface plasmon resonance as in the Example −2.

His-tagged CD38 = target: T2, His-tagged CD38 (human, UniProt P28907 43-300, limits assumed); experiment: SPR (Biacore S200), His-tagged CD38 immobilised, single-cycle kinetics
T2 construct: The order of CD38 and tag is not known; not shown: His tag
Protocol: EDC/NHS mixture was injected at a flow rate of […] for 7 minutes to thereby activate the functional groups on sensor chip. His-tagged CD38 in Running Buffer (10 mM HEPES pH7.4, 150 mM NaCl, 0.05% Tween 20) was injected immobilized to at a flow rate of […]. For 7 minutes to immobilize the CD38 on the substrate surfaces of the sensor chip. Then Ethanolamine was injected at a flow rate of […] for 7 minutes.
1.0 M Ethanolamine(aq.) was injected at a flow rate of 10 L/min for 420 seconds for capping. 10 mM peptides (which were synthesised described above) in DMSO were diluted to obtain 10 uM with Running Buffer, and prepared 100 nM, 50 nM, 25 nM, 10 nM, 5 nM of each peptide's solutions (Peptide Samples).
as §1, with “against His-tagged” for “against”, “software 1.1” for “software”, “S200.” for “T200.”

[3] = compounds similar to I-1, larger values indicate stronger binding
[4] = compounds similar to I-2, larger values indicate stronger binding

| Molecule | Binding Assay (CD38 [1]; [3]) | Kd (CD38 [2]) [nM] | further results |
| --- | --- | --- | --- |
| A A Ahp Y H D G V L Bph Ahp D C: compound of similar structure to I-1, difference being amino acid sequence: Ala at position 2 (YHDGVL[Bip][Ahp(2)]DC; not fully specified (N-terminus, bridges)) | 0.60 |  |  |
| CC(C)C[C@@H]1NC(=O)[C@H](C)NC(=O)CSC[C@@H](C(=O)NCCOCCOCCOCCOCCC(=O)N[C@@H](CCCCN)C(N)=O)NC(=O)[C@H](C(C)C)NC(=O)[C@H](Cc2c[nH]c3ccccc23)NC(=O)[C@H](C(C)C)NC(=O)[C@H](Cc2ccc(-c3ccccc3)cc2)NC(=O)[C@@H]2CCCN2C(=O)[C@H](CC(C)C)NC(=O)[C@H](C(C)C)NC(=O)[C@H](Cc2ccccc2)N(C)C(=O)[C@H](Cc2c[nH]cn2)NC1=O [I-5] ({CH2CO}-ALH[NMeF]VLP[Bip]VWVC[PEG4]K-NH2; thioether N-12) |  | 10.5 |  |
| CCCCC[C@@H]1NC(=O)[C@H](CCCNC(=N)N)NC(=O)[C@H](C)NC(=O)CSC[C@@H](C(=O)NCCOCCOCCOCCOCCOCCOCCOCCOCCOCCOCCOCCOCCC(=O)N[C@@H](CCCCN)C(N)=O)NC(=O)[C@H](CC(=O)O)NC(=O)[C@H](CCCCC)NC(=O)[C@H](Cc2ccc(-c3ccccc3)cc2)NC(=O)[C@H](CC(C)C)NC(=O)[C@H](C(C)C)NC(=O)CNC(=O)[C@H](CC(=O)O)NC(=O)[C@H](Cc2c[nH]cn2)NC(=O)[C@H](Cc2ccc(O)cc2)NC1=O [I-4] |  | 4.3 |  |
| CC(C)C[C@@H]1NC(=O)[C@H](C)NC(=O)CSC[C@@H](C(=O)NCCOCCOCCOCCOCCOCCOCCOCCOCCOCCOCCOCCOCCC(=O)N[C@@H](CCCCN)C(N)=O)NC(=O)[C@H](C(C)C)NC(=O)[C@H](Cc2c[nH]c3ccccc23)NC(=O)[C@H](C(C)C)NC(=O)[C@H](Cc2ccc(-c3ccccc3)cc2)NC(=O)[C@@H]2CCCN2C(=O)[C@H](CC(C)C)NC(=O)[C@H](C(C)C)NC(=O)[C@H](Cc2ccccc2)N(C)C(=O)[C@H](Cc2c[nH]cn2)NC1=O [I-6] ({CH2CO}-ALH[NMeF]VLP[Bip]VWVC[PEG12]K-NH2; thioether N-12) |  | 11.7 |  |
| A L H MeF V L P A V W V C: compound of similar structure to I-2, difference being amino acid sequence: Ala at position 8 (VLPAVWVC; not fully specified (N-terminus, bridges)) |  |  | Binding Assay (CD38 [1]; [4]): 0.09 |
| A R Ahp Y A D G V L Bpb Ahp D C: compound of similar structure to I-1, difference being amino acid sequence: Ala at position 5 (YADGVL; not fully specified (N-terminus, C-terminus, bridges)) | 0.28 |  |  |
| A L H A V L P Bph V W V C: compound of similar structure to I-2, difference being amino acid sequence: Ala at position 4 (ALHAVLP[Bip]VWVC; not fully specified (N-terminus, bridges)) |  |  | Binding Assay (CD38 [1]; [4]): 0.10 |
| A R Ahp A H D G V L Bph Ahp D C: compound of similar structure to I-1, difference being amino acid sequence: Ala at position 4 (AHDGVL[Bip][Ahp(2)]DC; not fully specified (N-terminus, bridges)) | 0.11 |  |  |
| A R A Y H D G V L Bph Ahp D C: compound of similar structure to I-1, difference being amino acid sequence: Ala at position 3 (ARAYHDGVL[Bip][Ahp(2)]DC; not fully specified (N-terminus, bridges)) | 0.11 |  |  |
| B1 |  |  | Kd (His-tagged CD38): 4.99 nM |
